According to paper PMC4445001 (Molecular Therapy. Methods & Clinical Development, 2015):

Experiments:
[1] = target: JO-4 (affinity-enhanced junction opener; self-dimerizing HAdV3-V239D fiber knob) (human adenovirus type 3 (HAdV3)) (UniProt P04501); assay: SPR
crystal structure = target: the molecule itself; assay: crystal structure

Recombinant human DSG2 protein (desmoglein 2), sequence (Q14126 50-609): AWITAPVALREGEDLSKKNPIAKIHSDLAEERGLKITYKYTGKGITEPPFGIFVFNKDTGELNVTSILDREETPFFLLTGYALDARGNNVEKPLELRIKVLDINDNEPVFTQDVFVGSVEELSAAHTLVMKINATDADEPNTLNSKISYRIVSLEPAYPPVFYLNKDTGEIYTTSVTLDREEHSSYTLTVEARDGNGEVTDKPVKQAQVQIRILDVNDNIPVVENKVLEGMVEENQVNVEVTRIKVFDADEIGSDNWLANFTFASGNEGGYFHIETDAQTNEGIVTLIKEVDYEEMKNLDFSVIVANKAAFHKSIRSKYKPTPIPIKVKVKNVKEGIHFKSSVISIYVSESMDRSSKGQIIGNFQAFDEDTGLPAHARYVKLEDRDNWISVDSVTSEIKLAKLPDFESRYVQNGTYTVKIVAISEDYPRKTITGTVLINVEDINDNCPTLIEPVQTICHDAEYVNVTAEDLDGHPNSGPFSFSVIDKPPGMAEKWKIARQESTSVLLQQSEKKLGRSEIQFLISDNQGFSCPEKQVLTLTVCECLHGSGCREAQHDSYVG

| Molecule | Kd [1] | binding result (crystal structure) |
| --- | --- | --- |
| Recombinant human DSG2 protein (desmoglein 2) (from UniProt Q14126 50-609) (receptor) | 1.4 nM | – |
| HAdV3 fiber knob mutant V239D (nondimerized, trimeric) (domain or fragment, human adenovirus type 3 (HAdV3)) ALKNNTLWTGPKPEANCIIEYGKQNPDSKLTLILVKNGGIVNGYVTLMGASDYVNTLFKNKNVSINVELYFDATGHILPDSSSLKTDLELKYKQTADFSARGFMPSTTAYPFDLPNAGTHNENYIFGQCYYKASDGALFPLEVTVMLNKRLPDSRTSYVMTFLWSLNAGLAPETTQATLITSPFTFSYIREDD | – | binds |
